The source of these data is article PMC4755828 (Nature chemical biology, 2016).

Broadly, the EC50 is the midpoint of the concentration-response curve. The low end stands for higher potency in that assay, the high end for lower potency in that assay. For orientation: Kd means the constant that tells how readily two partners part at equilibrium. By IC50 is commonly meant the concentration needed to halve the response being measured. The low end stands for higher potency, the high end for lower potency.

Square brackets hold non-standard residues; d marks the D form. Ends that are not written are not given here. Peptide text beside a SMILES is read from it. * marks the point of attachment. Benzoyl(4-tBu) = CC(C)(C)c1ccc(C(=O)*)cc1; Lys(Me3) = C[N+](C)(C)CCCC[C@H](N)C(=O)O; Lys(Et2) = CCN(CC)CCCC[C@H](N)C(=O)O

One data set concerns HEK293T cells. As to the kind of experiment: CellTiter-Glo cell viability assay. It is filed as cell-based. The note with it: up to 100 μM, 48 hours. On the technique in general: In ATP-based viability assays light output follows the ATP content of the culture.
Data set [1] relates to PC3 cells. In words: Intracellular concentration by LC-MS/MS. The format is in vitro ADME.
Data set [2] in a line: Intracellular concentration by LC-MS/MS. The note with it: human, PC3 cells. The format is in vitro ADME.
Data set [3] relates to PC3 cells. In words: CellTiter-Glo cell viability assay. It is filed as cell-based. As to conditions: up to 100 μM, 48 hours.
Another data set can be described thus: Mouse pharmacokinetics. As to conditions: male swiss albino mice. It is filed as in vivo.
The target in data set [4] is CBX7 chromodomain (residues 8-62), C-terminal His-tag (UniProt O95931). As to the kind of experiment: ITC. On the technique in general: ITC needs no label: the signal is the heat of the interaction.
The subject of the next data set is CBX7. As to conditions: cited from earlier work.
In data set [5] the target is CBX7 (AlphaScreen construct). As to the kind of experiment: AlphaScreen or HTRF.
Data set [6] addresses CBX4 chromodomain (residues 8-65), N-terminal His-tag (UniProt O00257). In words: ITC.
For data set [7], the target named is CDY1 chromodomain (residues 1-101) (UniProt Q9Y6F8). As to the kind of experiment: ITC.
In data set [8] the target is CBX2 chromodomain (residues 9-66) (UniProt Q14781). In words: ITC.
Data set [9] deals with CBX8 chromodomain (residues 8-61), N-terminal His-tag (UniProt Q9HC52). As to the kind of experiment: ITC.
Data set [10] addresses CBX6 chromodomain (residues 8-65) (UniProt O95503). As to the kind of experiment: ITC.
Data set [11] has as its target CDYL2 chromodomain (residues 1-75) (UniProt Q8N8U2). In words: ITC.
The target of data set [12] is CDYL1b chromodomain (residues 1-78) (UniProt Q9Y232). In words: ITC.

CBX7 chromodomain (residues 8-62), C-terminal His-tag, sequence (O95931 8-62): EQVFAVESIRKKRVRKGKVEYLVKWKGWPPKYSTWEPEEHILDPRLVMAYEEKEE
CDYL2 chromodomain (residues 1-75), sequence (Q8N8U2 1-75): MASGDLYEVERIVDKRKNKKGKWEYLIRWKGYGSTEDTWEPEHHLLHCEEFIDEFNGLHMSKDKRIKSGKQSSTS
CBX2 chromodomain (residues 9-66), sequence (Q14781 9-66): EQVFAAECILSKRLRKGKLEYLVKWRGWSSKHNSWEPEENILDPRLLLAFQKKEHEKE
CDY1 chromodomain (residues 1-101), sequence (Q9Y6F8 1-101): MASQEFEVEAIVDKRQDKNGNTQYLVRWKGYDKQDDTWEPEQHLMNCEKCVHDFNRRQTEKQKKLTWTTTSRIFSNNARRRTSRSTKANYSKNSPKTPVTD
CBX8 chromodomain (residues 8-61), N-terminal His-tag, sequence (Q9HC52 8-61): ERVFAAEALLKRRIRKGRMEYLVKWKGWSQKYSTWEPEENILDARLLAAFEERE
CBX6 chromodomain (residues 8-65), sequence (O95503 8-65): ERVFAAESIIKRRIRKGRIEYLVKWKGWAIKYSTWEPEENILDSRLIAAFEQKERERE

For the compound `CCN(CC)CCCC[C@H](NC(=O)[C@H](CC(C)C)NC(=O)[C@H](C)NC(=O)[C@H](Cc1ccccc1)NC(=O)c1ccc(C(C)(C)C)cc1)C(=O)N[C@@H](CO)C(=O)OC` [UNC3866] ({Benzoyl(4-tBu)}-FAL[Lys(Et2)]S-OMe), the “toxicity in HEK293T cells” value with HEK293T cells was “no toxic effects”. The same compound registered an intracellular concentration in the data set with PC3 cells [1] (PC3 cells treated with 30 μM UNC3866 for 24 hrs, LC-MS/MS) of 1.4 ± 0.3 µM. In addition, the “intracellular concentration as % of the extracellular concentration” value in the data set with PC3 cells [1] (PC3 cells, 30 μM UNC3866, 24 hours) is on record as approximately 5%. The EC50 in data set [2] amounted to 340 nM. For the same compound, in the data set on PC3 cells [3], the “toxicity in PC3 cells” value was “no toxic effects”. Further, the “clearance (in words)” value in “Mouse pharmacokinetics” was “moderate”.
Take UNC4195 (peptide): the Kd in [4] was determined as 220 nM.
With UNC3567 (peptide), the dissociation constant Kd in data set [4] amounted to 6700 nM.
Consider RGFAL[Lys(Me3)]STHG, for which the “affinity for CBX7 relative to the corresponding H3K27me3 peptide” value in the data set with CBX7 is given as 22 fold. The Kd at CBX7 (read-out: CBX7 Kd) was 5000 nM.
Take UNC3866 (peptide): the IC50 in data set [5] came to 66 nM. Further, the Kd amounted to 97 nM in [4]; 94 nM in data set [6]; 6300 nM in data set [7]; 1800 nM in data set [8]; 1200 nM in [9]; 610 nM in data set [10]. Also, the Kd in data set [11] came out at 850 nM; in data set [12], 910 nM.
